Results on 17 substances are retold here after patent publication US6348311B1, “ATM kinase modulation for screening and therapies” (St. Jude Childre's Research Hospital, priority 1999, dated 2002).

Holding throughout (assay type): biochemical
For one experiment, the target named is T1, ATR (Homo sapiens, UniProt Q13535).
T1 construct: made in house; host or cells: 293T cells, transient transfection with pBJF-FRPwt, anti-FLAG M2 immunoprecipitate
As to the kind of experiment: In vitro kinase assay, ATR with GST-peptide / GST-fusion substrates. The conditions noted are these: for Relative Phosphorylation (%) ATR: GST-peptide substrate, relative to the p53ser15 site. As for the experimental part: (§1) FIGS. 1A, 1B, and 1C. Phosphorylation of GST-p53 mutant peptides (amino acids 9-21) by ATM, ATR, and DNA-PK in vitro. In vitro kinase assays with immunoprecipitated, transfected flag-tagged ATM (A) or ATR (B) or purified DNA-PK (C) were performed with GST-p53 peptides containing the amino acid substitutions indicated. The amount of 32P-labeled GST-peptides was quantitated with a PhosphorImager and was normalized for each of the kinases to the level of phosphorylation of wild-type GST-p53.
(§2) FIGS. 2A, 2B, and 2C. Phosphorylation of candidate targets of by ATM, ATR and DNA-PK in vitro. GST-peptides containing the putative target sequences were used as substrates for the kinase assay.
Transfection and Kinase Activity Assays. 293T cells were transiently transfected with 10 μg of either pcDNA-FLAG-ATMwt, pcDNA-FLAG-ATMkd, pBJF-FRPwt or pBJF-FRPkd (Cliby et al., EMBO J., 17:159, 1998) using calcium phosphate and harvested two days later. Cells were lysed through sonication in TGN buffer [50 mM Tris (pH 7.5), 50 mM glycerophosphate, 150 mM NaCl, 10% glycerol, 1% Tween 20, 1 mM NaF, 1 mM NaVO4, 1 mM PMSF, […] Pepstatin A, 5 μg/ml leupeptin, 10 μg/ml Aprotinin and 1 mM DTT] as described (Brunn et al., Science, 277:99-101,1997). After centrifugation at 13,000 ×g, 2 mg of extract were incubated with mouse IgG and protein A/G sepharose beads (Calbiochem). FLAG-tagged proteins were then immunoprecipitated with anti-FLAG M2 monoclonal antibody (Eastman Kodak Company) and protein A/G sepharose beads. Immunoprecipitates were washed twice with TGN buffer, once with 100 mM Tris (pH 7.5) plus 0.5 M LiCl, and twice with kinase buffer [10 mM Hepes (pH 7.5), 50 mM glycerophosphate, 50 mM NaCl, 10 mM MgCl2, 10 mM MnCl2, 5 μM ATP, and 1 mM DTT]. Kinase reactions were initiated by resuspending washed beads in 30 μl of kinase buffer containing 10 μCi [γ-^32P]ATP and 1 μg GSTp531-101 and incubated for 30 minutes at 30° C. Proteins were electrophoretically separated by SDS-polyacrylamide gel electrophoresis, transferred to nitrocellulose, and analyzed on a PhosphorImager. FLAG-tagged proteins and GSTp531-101 were subjected to immunoblotting with either anti-FLAG M2 antibody or monoclonal antibodies directed towards the NH2-terminus of p53 (Ab-2 and Ab-6, Calbiochem) as described (Siliciano et al., Genes Dev., 11:3471, 1997).
Phosphorylation of Ser^15 of p53 by ATM and ATR/FRP1 in vitro. […] Proteins from each reaction were separated by SDS polyacrylamide gel electrophoresis (7% gel), transferred to nitrocellulose, and analyzed either on a PhosphorImager or by immunoblotting. Amounts of FLAG-tagged ATM or ATR in each kinase reaction were measured by immunoblotting with anti-FLAG M2 (top panel) and amount of [γ^32P]phosphate incorporated into ATM or ATR during the reaction (lower panel). […] An upper immunoreactive band represents phosphorylated GSTp53 fusion protein. The same exposures were used for ATM, ATR/FRP1 and corresponding substrate proteins.
(§3) Plasmids and GST-fusion protein production. For GST fusion peptide expression vectors, complementary oligonucleotides encoding desired peptides (14 amino acids) were cloned into the BamHI/SmaI site of pGEX-2T (Pharmacia). The constructs were confirmed by restriction enzyme digests and DNA sequencing. To construct the larger GST-p95 (327-391) protein fragment, p95 DNA encoding amino acids 327-391 was amplified by PCR with Pfu polymerase using the following primers: 5′ sense,
In vitro kinase assays and immunoprecipitation. […] Cleared supernatants were immunoprecipitated with anti-Flag M2 antibody and protein A/G agarose, the beads were washed with TGN buffer followed by TGN buffer plus 0.5 M LiCl, and two washes with kinase buffer [20 mM HEPES (pH 7.5), 50 mM NaCl, 10 mM MgCl2, 1 mM dithiothreitol (DTT) and 10 mM MnCl2]. […] ATP and […] of GST-fusion substrate (GST-p53:1-101), in varying concentration of Mn^2+. […]

The target of another experiment is DNA-PK (Homo sapiens, UniProt P78527). As to the kind of experiment: In vitro kinase assay, purified DNA-PK with GST-peptide / GST-fusion substrates. The conditions noted are these: GST-peptide substrate; relative to the p53ser15 site. As for the experimental part: as §1, §2, §3
In vitro kinase assays and immunoprecipitation. […] Cleared supernatants were immunoprecipitated with anti-Flag M2 antibody and protein A/G agarose, the beads were washed with TGN buffer followed by TGN buffer plus 0.5 M LiCl, and two washes with kinase buffer [20 mM HEPES (pH 7.5), 50 mM NaCl, 10 mM MgCl2, 1 mM dithiothreitol (DTT) and 10 mM MnCl2]. […] ATP and […] of GST-fusion substrate (GST-p53:1-101), in varying concentration of Mn^2+. The kinase reaction was conducted at 30° C. for 20 min and stopped by the addition of SDS-PAGE loading buffer. Proteins were separated on SDS-polyacrylamide gel electrophoresis (SDS-PAGE) and transferred to nitrocellulose. Radiolabeled proteins were visualized and quantitated on a Phosphorimager (Molecular Dynamics). Use of equivalent amounts of flag-tagged ATM or ATR in the different lanes was confirmed by immunoblotting with anti-flag antibody. In some reactions, either supercoiled DNA (pBluescript II KS, Stratagene) or linearized DNA (pBluescript II KS cut with EcoR1) was added ([…]). For endogenous ATM kinase reactions, endogenous ATM was immunoprecipitated from GM0536 lymphhoblasts with ATM monoclonal antibody (D16.11) in M buffer (PBS, 10% glycerol, 0.2% Tween 20, 0.3% NP-40, 1 mM NaF, 1 mM Na3VO4, 1 mM PMSF, 1x protease inhibitor mixture]. After washing with M buffer and kinase buffer, in vitro kinase reactions were carried out according to procedures described above. The DNA-PK in vitro kinase reaction was performed as previously described (Gottlieb and Jackson, 1993), using 20 ng each of DNA-PKcs or DNA-PK (20 ng DNA-PKcs premixed with 20 ng Ku 70/80).

Another experiment concerns the target T2, ATM kinase (Homo sapiens, UniProt Q13315).
T2 construct: The full-length cDNA encoding NH2-terminal, FLAG-tagged wild-type ATM; made in house; host or cells: 293T cells, transient transfection with pcDNA-FLAG-ATMwt, anti-FLAG M2 immunoprecipitate on beads
As to the kind of experiment: In vitro kinase assay, ATM with GST-peptide / GST-fusion substrates.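 As to all read-outs here: immunoprecipitated ATM incubated with [γ-32P]ATP at 30 °C for 20 min, substrates resolved by SDS-PAGE and radiolabel incorporation quantified by PhosphorImager.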 The conditions noted are these: for Relative Phosphorylation (%) ATM: GST-peptide substrate, relative to the p53ser15 site.

The mark [1] stands for this setting: GST-conjugated 14 amino acid peptides.

Where no end group is shown, it is not given here.

T2 sequence (Q13315 whole entry): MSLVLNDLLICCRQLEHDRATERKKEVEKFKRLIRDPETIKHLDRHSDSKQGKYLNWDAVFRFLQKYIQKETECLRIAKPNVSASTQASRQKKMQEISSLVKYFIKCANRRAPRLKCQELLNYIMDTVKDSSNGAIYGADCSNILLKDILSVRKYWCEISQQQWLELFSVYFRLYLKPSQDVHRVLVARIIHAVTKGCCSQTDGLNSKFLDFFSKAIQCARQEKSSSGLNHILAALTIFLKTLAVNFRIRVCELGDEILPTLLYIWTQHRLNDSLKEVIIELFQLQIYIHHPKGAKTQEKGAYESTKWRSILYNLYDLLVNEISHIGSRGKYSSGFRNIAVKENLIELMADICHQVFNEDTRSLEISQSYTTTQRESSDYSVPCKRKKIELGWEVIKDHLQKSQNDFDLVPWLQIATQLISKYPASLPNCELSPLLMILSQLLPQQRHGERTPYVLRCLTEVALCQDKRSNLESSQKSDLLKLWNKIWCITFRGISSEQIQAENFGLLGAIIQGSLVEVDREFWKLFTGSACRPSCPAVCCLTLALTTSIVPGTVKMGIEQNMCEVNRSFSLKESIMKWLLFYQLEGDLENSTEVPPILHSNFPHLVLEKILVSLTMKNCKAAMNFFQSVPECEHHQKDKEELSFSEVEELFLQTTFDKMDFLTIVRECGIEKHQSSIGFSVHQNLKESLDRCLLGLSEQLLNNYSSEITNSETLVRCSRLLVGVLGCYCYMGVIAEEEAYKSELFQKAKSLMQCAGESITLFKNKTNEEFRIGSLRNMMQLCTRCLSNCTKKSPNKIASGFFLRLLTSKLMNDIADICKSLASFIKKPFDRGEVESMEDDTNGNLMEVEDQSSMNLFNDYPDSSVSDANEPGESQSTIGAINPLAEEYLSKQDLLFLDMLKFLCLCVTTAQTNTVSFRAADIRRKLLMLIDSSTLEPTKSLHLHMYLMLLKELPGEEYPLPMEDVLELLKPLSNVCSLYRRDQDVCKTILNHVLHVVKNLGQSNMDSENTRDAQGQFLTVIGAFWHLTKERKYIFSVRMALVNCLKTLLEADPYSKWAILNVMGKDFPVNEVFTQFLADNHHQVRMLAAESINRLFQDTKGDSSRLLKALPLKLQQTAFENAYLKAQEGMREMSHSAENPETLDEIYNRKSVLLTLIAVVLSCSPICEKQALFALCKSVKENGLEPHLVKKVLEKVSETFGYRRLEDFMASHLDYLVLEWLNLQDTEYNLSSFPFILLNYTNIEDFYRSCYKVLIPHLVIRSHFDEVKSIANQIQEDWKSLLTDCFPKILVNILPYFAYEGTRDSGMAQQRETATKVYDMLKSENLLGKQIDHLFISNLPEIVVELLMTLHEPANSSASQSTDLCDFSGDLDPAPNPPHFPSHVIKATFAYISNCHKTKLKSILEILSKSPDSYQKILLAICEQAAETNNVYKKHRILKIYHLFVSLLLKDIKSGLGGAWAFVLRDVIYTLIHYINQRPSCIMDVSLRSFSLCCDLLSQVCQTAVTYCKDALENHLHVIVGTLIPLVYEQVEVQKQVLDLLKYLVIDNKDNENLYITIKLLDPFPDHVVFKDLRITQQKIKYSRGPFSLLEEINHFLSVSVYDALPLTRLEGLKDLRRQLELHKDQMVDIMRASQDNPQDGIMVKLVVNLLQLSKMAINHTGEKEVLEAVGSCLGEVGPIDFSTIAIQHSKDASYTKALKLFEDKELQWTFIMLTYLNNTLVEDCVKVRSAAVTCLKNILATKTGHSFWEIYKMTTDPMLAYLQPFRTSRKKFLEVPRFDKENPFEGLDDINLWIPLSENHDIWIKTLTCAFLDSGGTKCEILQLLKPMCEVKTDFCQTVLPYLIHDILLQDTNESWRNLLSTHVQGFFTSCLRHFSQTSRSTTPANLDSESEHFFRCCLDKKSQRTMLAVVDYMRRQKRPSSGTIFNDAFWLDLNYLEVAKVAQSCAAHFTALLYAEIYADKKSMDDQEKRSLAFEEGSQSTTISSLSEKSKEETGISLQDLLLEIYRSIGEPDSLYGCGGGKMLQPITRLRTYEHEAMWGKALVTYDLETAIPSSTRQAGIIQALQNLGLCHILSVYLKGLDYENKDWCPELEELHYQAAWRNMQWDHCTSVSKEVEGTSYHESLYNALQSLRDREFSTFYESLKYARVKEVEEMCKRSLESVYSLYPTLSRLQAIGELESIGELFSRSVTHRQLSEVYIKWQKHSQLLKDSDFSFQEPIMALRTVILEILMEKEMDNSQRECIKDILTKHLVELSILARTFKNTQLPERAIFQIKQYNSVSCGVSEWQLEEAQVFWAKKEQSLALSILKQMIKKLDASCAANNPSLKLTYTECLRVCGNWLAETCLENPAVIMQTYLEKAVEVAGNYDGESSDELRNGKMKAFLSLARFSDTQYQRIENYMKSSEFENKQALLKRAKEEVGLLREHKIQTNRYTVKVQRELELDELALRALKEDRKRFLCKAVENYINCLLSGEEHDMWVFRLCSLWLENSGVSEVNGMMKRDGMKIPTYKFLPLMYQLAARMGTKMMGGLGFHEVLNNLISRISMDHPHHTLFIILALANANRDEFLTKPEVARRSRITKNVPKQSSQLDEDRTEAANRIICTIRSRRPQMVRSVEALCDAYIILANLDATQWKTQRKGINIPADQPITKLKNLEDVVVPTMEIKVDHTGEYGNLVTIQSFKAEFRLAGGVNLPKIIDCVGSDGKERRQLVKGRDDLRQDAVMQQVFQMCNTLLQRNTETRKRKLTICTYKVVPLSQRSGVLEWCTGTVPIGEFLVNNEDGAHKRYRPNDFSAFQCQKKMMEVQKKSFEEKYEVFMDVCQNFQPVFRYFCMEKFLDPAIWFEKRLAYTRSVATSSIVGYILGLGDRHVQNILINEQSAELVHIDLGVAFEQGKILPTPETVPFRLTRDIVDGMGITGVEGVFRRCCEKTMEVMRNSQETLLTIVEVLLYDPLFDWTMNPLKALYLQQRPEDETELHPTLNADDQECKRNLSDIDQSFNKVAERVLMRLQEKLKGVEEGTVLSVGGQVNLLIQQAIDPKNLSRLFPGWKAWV

In the case of “CHK1 (SQ2): GST-peptide VQGISFSQPTCPDH (SEQ ID NO:17), S345 (also: GST fusion)”, in the experiment with ATR, the “Relative Phosphorylation (%) ATR” value is reported as 73%. Moreover, the “Relative Phosphorylation (%) DNA-PK” value with DNA-PK came out at 20%. Further, the “Relative Phosphorylation (%) ATM” value in the experiment with ATM kinase is on record as 11%.

Take “c-ABL: GST-peptide YPGIDLSQVYELLE (SEQ ID NO:23), S446 (not fully specified (N-terminus); also: GST fusion; listed as Homo sapiens)”: the “Relative Phosphorylation (%) ATR” value with ATR came out at 8%. Further, the “Relative Phosphorylation (%) DNA-PK” value with DNA-PK is <1%. Besides, in the experiment with ATM kinase, the “Relative Phosphorylation (%) ATM” value was <1%.

Take “CtIP: GST-peptide DPGADLSQYKMDVT (SEQ ID NO:44), S664 (also: GST fusion)”: the “Relative Phosphorylation (%) ATR” value with ATR came out at 12%. For the same substance, in the experiment with DNA-PK, the “Relative Phosphorylation (%) DNA-PK” value is on record as 2%. The “Relative Phosphorylation (%) ATM” value with ATM kinase amounted to 12%.

For the substance “WRN (SQ1): GST-peptide EKAYSSSQPVISAQ (SEQ ID NO:21), S1141 (not fully specified (N-terminus); also: GST fusion; listed as Homo sapiens)”, the “Relative Phosphorylation (%) ATR” value with ATR is 49%. The “Relative Phosphorylation (%) DNA-PK” value in the experiment with DNA-PK stood at 14%. In addition, the “Relative Phosphorylation (%) ATM” value with ATM kinase amounted to 25%.

Turning to “BRCA1 (SQ3): GST-peptide SSEYPISQNPEGLS (SEQ ID NO:34), S1466 (also: GST fusion)”, in the experiment with ATR, the “Relative Phosphorylation (%) ATR” value is on record as 33%. Further, in the experiment with DNA-PK, the “Relative Phosphorylation (%) DNA-PK” value turned out to be 12%. Moreover, in the experiment with ATM kinase, the “Relative Phosphorylation (%) ATM” value turned out to be 8%.

For “RPA34kD (SQ3): GST-peptide TGNVEISQVTIVGI (SEQ ID NO:42), S72 (not fully specified (N-terminus); also: GST fusion; listed as Homo sapiens)”, the “Relative Phosphorylation (%) ATR” value with ATR is recorded as 8%. The “Relative Phosphorylation (%) DNA-PK” value with DNA-PK is on record as <1%. In addition, the “Relative Phosphorylation (%) ATM” value with ATM kinase is on record as <1%.

As for “RAD17 (SQ2): GST-peptide ASELPASQPQPFSA (SEQ ID NO:19), S656 (not fully specified (N-terminus); also: GST fusion; listed as Homo sapiens)”, in the experiment with ATR, the “Relative Phosphorylation (%) ATR” value came to 1065%. The “Relative Phosphorylation (%) DNA-PK” value in the experiment with DNA-PK came out at 25%. In addition, in the experiment with ATM kinase, the “Relative Phosphorylation (%) ATM” value came to 91%.

With “MRE11 (SQ3): GST-peptide RARALRSQSEESAS (SEQ ID NO:13), S531 (also: GST fusion)”, the “Relative Phosphorylation (%) ATR” value with ATR worked out at 13%. For the same substance, in the experiment with DNA-PK, the “Relative Phosphorylation (%) DNA-PK” value is <1%. Also, the “Relative Phosphorylation (%) ATM” value in the experiment with ATM kinase is recorded as <1%.

Take “CUT1: GST-peptide GASPVLSQGVDPRS (SEQ ID NO:36), S1615 (also: GST fusion)”: in the experiment with ATR, the “Relative Phosphorylation (%) ATR” value is listed as 20%. In addition, the “Relative Phosphorylation (%) DNA-PK” value with DNA-PK is reported as 5%. Besides, in the experiment with ATM kinase, the “Relative Phosphorylation (%) ATM” value is 9%.

Turning to “WRN (SQ2): GST-peptide TIGMHLSQAVKAGC (SEQ ID NO:20), S1292 (not fully specified (N-terminus); also: GST fusion; listed as Homo sapiens)”, the “Relative Phosphorylation (%) ATR” value with ATR is given as 33%. Besides, in the experiment with DNA-PK, the “Relative Phosphorylation (%) DNA-PK” value turned out to be 5%. Moreover, in the experiment with ATM kinase, the “Relative Phosphorylation (%) ATM” value was 10%.

For “β3A Adaptin: GST-peptide ELKPVLSQG (SEQ ID NO:43), S1092 (not fully specified (N-terminus); also: GST fusion; listed as Homo sapiens)”, the “Relative Phosphorylation (%) ATR” value with ATR is recorded as 22%. Moreover, in the experiment with DNA-PK, the “Relative Phosphorylation (%) DNA-PK” value was 44%. The “Relative Phosphorylation (%) ATM” value with ATM kinase was 6%.

On to “PTS (123F2): GST-peptide WETPDLSQAEIEQK (SEQ ID NO:37), S61 (not fully specified (N-terminus); also: GST fusion)”, for which the “Relative Phosphorylation (%) ATR” value in the experiment with ATR was determined as 40%. Moreover, in the experiment with DNA-PK, the “Relative Phosphorylation (%) DNA-PK” value is given as 33%. Besides, in the experiment with ATM kinase, the “Relative Phosphorylation (%) ATM” value amounted to 111%.

Consider “BRCA1 (SQ2): GST-peptide DCSGLSSQSDILTT (SEQ ID NO:33), S1387 (also: GST fusion)”, for which the “Relative Phosphorylation (%) ATR” value with ATR came to 35%. Further, the “Relative Phosphorylation (%) DNA-PK” value with DNA-PK is recorded as 36%. In addition, the “Relative Phosphorylation (%) ATM” value in the experiment with ATM kinase came to 42%.

On to “ATM S440: GST-peptide PLLMILSQLLPQQR (SEQ ID NO:24), S440 of ATM (also: GST fusion)”, for which the “Relative Phosphorylation (%) ATR” value with ATR is listed as 55%. The “Relative Phosphorylation (%) DNA-PK” value with DNA-PK was found to be 7%. Besides, the “Relative Phosphorylation (%) ATM” value with ATM kinase is recorded as 33%.

With “ATM S2761: GST-peptide YKVVPLSQRSGVLE (SEQ ID NO:25), S2761 of ATM (also: GST fusion)”, the “Relative Phosphorylation (%) ATR” value with ATR stood at 22%. For the same substance, the “Relative Phosphorylation (%) DNA-PK” value with DNA-PK was <1%. In addition, in the experiment with ATM kinase, the “Relative Phosphorylation (%) ATM” value worked out at 3%.

Turning to “p53 S37: GST-peptide VLSPLPSQAMDDLM (SEQ ID NO:8), p53 serine 37 site (not fully specified (N-terminus); also: GST fusion; listed as Homo sapiens)”, in the experiment with ATR, the “Relative Phosphorylation (%) ATR” value stood at 31%. Also, in the experiment with DNA-PK, the “Relative Phosphorylation (%) DNA-PK” value was determined as 132%. Moreover, the “Relative Phosphorylation (%) ATM” value with ATM kinase was 9%.

Consider “BRCA2: GST-peptide KVSPYLSQFQQDKQ (SEQ ID NO:29), S2156 (also: GST fusion)”, for which, in the experiment with ATR (setting [1]), the “phosphorylation of GST-peptide substrate by ATR (in words)” value is reported as “phosphorylated by ATR”. Besides, the “Relative Phosphorylation (%) ATR” value in the experiment with ATR turned out to be 132%. For the same substance, the “Relative Phosphorylation (%) DNA-PK” value in the experiment with DNA-PK is given as <1%. The “phosphorylation of GST-peptide substrate by ATM (in words)” value with ATM kinase (setting [1]) is listed as “not by ATM”. The “Relative Phosphorylation (%) ATM” value in the experiment with ATM kinase is on record as <1%.
